{
  "source": "patent US20230414752A1",
  "binders": {"B1": {"name": "hVIB-13 (VHH)", "VHH": "QVQLVESGGGLVQPGGSLTLSCAASGTGSIFSINLMGWYRQAPGKQRELVARITSGDSTVYADSVKGRFTISRDNSKNTLYLQMNSLRPEDTAVYYCNLLLRSSPGATTPYWGQGTLVTVSS"}},
  "target": "human EpCAM (human) (UniProt P16422)",
  "sequence (P16422 24-265 limits assumed)": "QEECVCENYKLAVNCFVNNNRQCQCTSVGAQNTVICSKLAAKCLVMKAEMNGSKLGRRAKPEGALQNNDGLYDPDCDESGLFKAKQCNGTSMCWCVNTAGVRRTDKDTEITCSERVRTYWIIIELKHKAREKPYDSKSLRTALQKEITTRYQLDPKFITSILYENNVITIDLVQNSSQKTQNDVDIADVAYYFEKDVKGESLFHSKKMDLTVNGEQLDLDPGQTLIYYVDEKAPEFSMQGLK",
  "assay": "binding affinity, method not stated",
  "data": [
    {"binder": "B1", "values": [
      {"measurement": "Kd", "result": 2.8, "unit": "nM"}
    ]}
  ]
}
